In publication PMC8892010:

Legend:
[1] = whole-cell lysate anti-FLAG immunoblot; conditions: glycan lost, untreated cells
[2] = inside-out patch clamp, G-V Boltzmann fits, 0 Ca2+; conditions: glycan lost, untreated cells; for other: BK channel gating modulation: control: γ2 WT
[3] = cell surface immunoprecipitation, N-terminal FLAG; conditions: glycan lost, untreated cells; for localisation_or_trafficking, other: percent decrease: control: γ1 WT
[4] = inside-out patch clamp, G-V, 0 Ca2+; conditions: glycan lost; control: γ3 WT, untreated cells

B1: BK channel γ1 subunit (LRRC26): tunicamycin (protein)
parent chain: MRGPSWSRPRPLLLLLLLLSPWPVWAQVSATASPSGSLGAPDCPEVCTCVPGGLASCSALSLPAVPPGLSLRLRALLLDHNRVRALPPGAFAGAGALQRLDLRENGLHSVHVRAFWGLGALQLLDLSANQLEALAPGTFAPLRALRNLSLAGNRLARLEPAALGALPLLRSLSLQDNELAALAPGLLGRLPALDALHLRGNPWGCGCALRPLCAWLRRHPLPASEAETVLCVWPGRLTLSPLTAFSDAAFSHCAQPLALRDLAVVYTLGPASFLVSLASCLALGSGLTACRARRRRLRTAALRPPRPPDPNPDPDPHGCASPADPGSPAAAAQA
- expression_or_secretion ([1]; control: γ1 WT): no change
- other: BK channel gating modulation, other: fraction of channels not modulated ([2]; control: γ1 WT): decreases
- localisation_or_trafficking, other: percent decrease [3]: decreases

B2: BK channel γ1 subunit (LRRC26): N147Q (protein)
parent chain: B1 parent chain
- expression_or_secretion ([1]; control: γ1 WT): no change
- localisation_or_trafficking, other: percent decrease [3]: decreases

B3: BK channel γ3 subunit (LRRC55): tunicamycin (protein)
parent chain: MGDTWAQLPWPGPPHPAMLLISLLLAAGLMHSDAGTSCPVLCTCRNQVVDCSSQRLFSVPPDLPMDTRNLSLAHNRITAVPPGYLTCYMELQVLDLHNNSLMELPRGLFLHAKRLAHLDLSYNNFSHVPADMFQEAHGLVHIDLSHNPWLRRVHPQAFQGLMQLRDLDLSYGGLAFLSLEALEGLPGLVTLQIGGNPWVCGCTMEPLLKWLRNRIQRCTADSQLAECRGPPEVEGAPLFSLTEESFKACHLTLTLDDYLFIAFVGFVVSIASVATNFLLGITANCCHRWSKASEEEEI
- other: BK channel gating modulation, other: V1/2 [4]: abolishes, 160.1 ± 7.4 vs 115.0 ± 1.7
- localisation_or_trafficking ([3]; control: γ3 WT): abolishes

B4: BK channel γ2 subunit (LRRC52): N148Q (protein)
parent chain: MSLASGPGPGWLLFSFGMGLVSGSKCPNNCLCQAQEVICTGKQLTEYPLDIPLNTRRLFLNENRITSLPAMHLGLLSDLVYLDCQNNRIREVMDYTFIGVFKLIYLDLSSNNLTSISPFTFSVLSNLVQLNIANNPHLLSLHKFTFANTTSLRYLDLRNTGLQTLDSAALYHLTTLETLFLSGNPWKCNCSFLDFAIFLIVFHMDPSDDLNATCVEPTELTGWPITRVGNPLRYMCITHLDHKDYIFLLLIGFCIFAAGTVAAWLTGVCAVLYQNTRHKSSEEDEDEAGTRVEVSRRIFQTQTSSVQEFPQLI
- other: BK channel gating modulation [2]: decreases

B5: BK channel γ2 subunit (LRRC52): triple-site mutant (N112Q/N148Q/N211Q) (protein)
parent chain: B4 parent chain
- expression_or_secretion ([1]; control: γ2 WT): decreases

B6: BK channel γ2 subunit (LRRC52): N148Q/N211Q (protein)
parent chain: B4 parent chain
- other: BK channel gating modulation [2]: decreases

B7: BK channel γ2 subunit (LRRC52): N112Q/N148Q (protein)
parent chain: B4 parent chain
- other: BK channel gating modulation [2]: decreases

B8: BK channel γ2 subunit (LRRC52): N211Q (protein)
parent chain: B4 parent chain
- other: BK channel gating modulation [2]: decreases

B9: BK channel γ2 subunit (LRRC52): tunicamycin (protein)
parent chain: B4 parent chain
- expression_or_secretion ([1]; control: γ2 WT): decreases
- other: BK channel gating modulation [2]: abolishes

B10: BK channel γ2 subunit (LRRC52): N112Q/N211Q (protein)
parent chain: B4 parent chain
- other: BK channel gating modulation [2]: decreases

B11: BK channel γ2 subunit (LRRC52): N112Q (protein)
parent chain: B4 parent chain
- other: BK channel gating modulation [2]: decreases
